Read-outs that look alike come from different tables or passages of the source.
T1: MbpAgo WT (Mucilaginibacter paludis, UniProt H1YCU5 1-795)
T1 sequence: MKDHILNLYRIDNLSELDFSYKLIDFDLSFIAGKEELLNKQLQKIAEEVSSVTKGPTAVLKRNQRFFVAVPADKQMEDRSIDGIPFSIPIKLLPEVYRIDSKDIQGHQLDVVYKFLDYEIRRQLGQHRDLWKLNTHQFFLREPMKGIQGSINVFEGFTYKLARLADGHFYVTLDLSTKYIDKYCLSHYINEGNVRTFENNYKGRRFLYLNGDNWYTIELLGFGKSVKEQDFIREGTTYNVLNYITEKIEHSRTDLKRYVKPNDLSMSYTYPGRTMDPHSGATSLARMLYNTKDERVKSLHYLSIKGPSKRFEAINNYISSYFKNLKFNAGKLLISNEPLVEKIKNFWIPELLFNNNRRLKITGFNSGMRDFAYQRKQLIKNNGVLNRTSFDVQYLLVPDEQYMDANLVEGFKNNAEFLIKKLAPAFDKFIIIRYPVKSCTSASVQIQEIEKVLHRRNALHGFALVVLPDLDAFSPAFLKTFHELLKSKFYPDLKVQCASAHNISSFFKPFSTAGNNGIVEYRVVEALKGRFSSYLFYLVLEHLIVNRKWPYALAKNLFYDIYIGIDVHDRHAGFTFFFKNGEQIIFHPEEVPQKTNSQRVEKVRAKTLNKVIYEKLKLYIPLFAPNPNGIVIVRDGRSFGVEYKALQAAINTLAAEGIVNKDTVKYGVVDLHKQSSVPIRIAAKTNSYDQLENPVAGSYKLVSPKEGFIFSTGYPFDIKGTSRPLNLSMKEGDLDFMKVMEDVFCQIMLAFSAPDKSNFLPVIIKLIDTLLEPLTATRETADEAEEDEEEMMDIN


Tests used:
MbpAgo WT [1] = target: T1, MbpAgo WT; experiment: EMSA
MbpAgo WT [2] = target: T1, MbpAgo WT; experiment: EMSA; remark: listed apart in the source

Binder | Kd (MbpAgo WT [1]) [nM] | Kd (MbpAgo WT [2]) [nM]
TGAGGTAGTAGGTTGT (ssDNA) [T-gDNA iFAM, 5'OH] | 148 ± 5.8 | 162 ± 4.8
TGAGGTAGTAGGTTGT (ssDNA, 5' phosphate) [T-gDNA iFAM, 5'P] | 111 ± 3 | 205 ± 7.6

— paper PMC9122594
